Results taken from paper doi:10.1101/2022.01.04.474899 (bioRxiv, 2022).

Molecular target: the molecule itself
Assay: SDS-PAGE immunoblot

B1: recombinant human asprosin with C-terminal 2×Strep-tag II (natural protein, UniProt P35555 2732-2871, looked up)
chain: STNETDASNIEDQSETEANVSLASWDVEKTAIFAFNISHVSNKVRILELLPALTTLTNHNRYLIESGNEDGFFKINQKEGISYLHFTKKKPVAGTYSLQISSTPLYKKKELNQLEDKYDKDYLSGELGDNLKMKIQVLLH
  stoichiometry N: 4
